Experimental findings from the supplement of paper PMC9112550, “Optimization of the antimicrobial peptide Bac7 by deep mutational scanning” (BMC Biology, 2022) are described below.

For the series, the system named is Escherichia coli TOP10. Description: shrunken log2 fold change of peptide-encoding DNA abundance (4.5 h post-induction vs induction); higher = less antimicrobial activity (less host growth inhibition). As to conditions: time post-induction: 4.5 h; library: site-saturation at positions 5, 18, 19, 20.
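Further: peptides expressed intracellularly from a pBAD plasmid library in pooled LB shake-flask culture, induced with 0.3% L-arabinose, DNA abundance read by NGS, three biological replicates, DESeq2 with apeglm shrinkage.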

For the sequence RRIRARPPRLPRPRPRPFDTPRP, the “shrunken log2 fold change” value was -0.333. Turning to RRIRMRPPRLPRPRPRPSYTPRP, the “shrunken log2 fold change” value is -0.38.

Take RRIRSRPPRLPRPRPRPFKSPRP: the “shrunken log2 fold change” value amounted to 0.0547. Consider RRIRCRPPRLPRPRPRPMSTPRP, for which the “shrunken log2 fold change” value is -0.0888.

Consider RRIRGRPPRLPRPRPRPMIFPRP, for which the “shrunken log2 fold change” value stood at 0.283.

RRIRFRPPRLPRPRPRPFTFPRP: the “shrunken log2 fold change” value is -0.41. In the case of RRIRKRPPRLPRPRPRPHTAPRP it was 0.239; in that of RRIRWRPPRLPRPRPRPFLIPRP, -0.488; in that of RRIRIRPPRLPRPRPRPEIMPRP, -0.183. As for RRIRQRPPRLPRPRPRPKLEPRP, the “shrunken log2 fold change” value amounted to 0.563. Take RRIRHRPPRLPRPRPRPNIGPRP: the “shrunken log2 fold change” value is -0.431.

RRIRHRPPRLPRPRPRPSVHPRP: the “shrunken log2 fold change” value was -0.204.

Regarding RRIRQRPPRLPRPRPRPNLCPRP, the “shrunken log2 fold change” value is -0.00174. As to RRIRWRPPRLPRPRPRPQAKPRP, the “shrunken log2 fold change” value is 0.00651. Consider RRIRERPPRLPRPRPRPQSEPRP, for which the “shrunken log2 fold change” value is -0.000579. Regarding RRIRRRPPRLPRPRPRPFNTPRP, the “shrunken log2 fold change” value was -0.119. In the case of RRIRKRPPRLPRPRPRPYSYPRP it was -0.0565; in that of RRIRSRPPRLPRPRPRPMVYPRP, -0.111; in that of RRIRCRPPRLPRPRPRPWHKPRP, -0.256. Turning to RRIRPRPPRLPRPRPRPSLHPRP, the “shrunken log2 fold change” value is -0.21.

For the sequence RRIRWRPPRLPRPRPRPGTKPRP, the “shrunken log2 fold change” value came out at 0.139.

On to RRIRRRPPRLPRPRPRPTEIPRP, for which the “shrunken log2 fold change” value was determined as 0.299. With RRIRERPPRLPRPRPRPDPNPRP, the “shrunken log2 fold change” value is 0.0422. As for RRIRGRPPRLPRPRPRPCWAPRP, the “shrunken log2 fold change” value was determined as 0.485. For RRIRHRPPRLPRPRPRPDFVPRP, the “shrunken log2 fold change” value is -0.242. In the case of RRIRRRPPRLPRPRPRPHCYPRP, the “shrunken log2 fold change” value is 0.0243. Regarding RRIRCRPPRLPRPRPRPDMYPRP, the “shrunken log2 fold change” value was -0.561.

For RRIRCRPPRLPRPRPRPACSPRP, the “shrunken log2 fold change” value was -0.0823.

As for RRIRGRPPRLPRPRPRPGHDPRP, the “shrunken log2 fold change” value turned out to be 0.0495. Regarding RRIRTRPPRLPRPRPRPLTNPRP, the “shrunken log2 fold change” value was -0.0099.

As for RRIRIRPPRLPRPRPRPYCPPRP, the “shrunken log2 fold change” value was -0.175. In the case of RRIRCRPPRLPRPRPRPRPCPRP it was 0.339. As for RRIRDRPPRLPRPRPRPWDMPRP, the “shrunken log2 fold change” value is -0.133. Take RRIRDRPPRLPRPRPRPKMRPRP: the “shrunken log2 fold change” value was -0.013. Turning to RRIRPRPPRLPRPRPRPQEYPRP, the “shrunken log2 fold change” value was -0.151.

As to RRIRYRPPRLPRPRPRPNYDPRP, the “shrunken log2 fold change” value is -0.746. Turning to RRIRFRPPRLPRPRPRPVGPPRP, the “shrunken log2 fold change” value stood at 0.405. Consider RRIRKRPPRLPRPRPRPKLAPRP, for which the “shrunken log2 fold change” value was found to be 1.58. With RRIRMRPPRLPRPRPRPVNMPRP the figure was -0.292; with RRIRHRPPRLPRPRPRPDAMPRP, -0.00187; with RRIRHRPPRLPRPRPRPDSGPRP, -0.0385. As to RRIRRRPPRLPRPRPRPDMYPRP, the “shrunken log2 fold change” value was -0.315. On to RRIRNRPPRLPRPRPRPEWHPRP, for which the “shrunken log2 fold change” value is -0.285. With RRIRCRPPRLPRPRPRPRQQPRP the figure was -0.245; with RRIRWRPPRLPRPRPRPECQPRP, -0.0508; with RRIRTRPPRLPRPRPRPKQWPRP, 0.158. With RRIRMRPPRLPRPRPRPEAYPRP the figure was 0.036. For the sequence RRIRHRPPRLPRPRPRPSVMPRP, the “shrunken log2 fold change” value is -0.19. As for RRIRPRPPRLPRPRPRPRKYPRP, the “shrunken log2 fold change” value is -0.352. With RRIRARPPRLPRPRPRPKCFPRP the figure was -0.0172.

Regarding RRIRYRPPRLPRPRPRPGMWPRP, the “shrunken log2 fold change” value was found to be 0.234. RRIRSRPPRLPRPRPRPQICPRP: the “shrunken log2 fold change” value is -0.0872. For the sequence RRIRIRPPRLPRPRPRPTETPRP, the “shrunken log2 fold change” value was 0.0225. With RRIRWRPPRLPRPRPRPASKPRP the figure was 0.294.

For the sequence RRIRLRPPRLPRPRPRPRLSPRP, the “shrunken log2 fold change” value turned out to be 0.346.

In the case of RRIRSRPPRLPRPRPRPESNPRP, the “shrunken log2 fold change” value was -0.126. Take RRIRWRPPRLPRPRPRPHIWPRP: the “shrunken log2 fold change” value was -0.131. RRIRVRPPRLPRPRPRPGPCPRP: the “shrunken log2 fold change” value was -0.128. With RRIRGRPPRLPRPRPRPYKYPRP the figure was -0.346; with RRIRMRPPRLPRPRPRPYSWPRP, -0.0788. With RRIRKRPPRLPRPRPRPARRPRP the figure was 0.888; with RRIRSRPPRLPRPRPRPFGLPRP, -0.0988; with RRIRIRPPRLPRPRPRPIRLPRP, -0.41. As to RRIRVRPPRLPRPRPRPRSPPRP, the “shrunken log2 fold change” value was found to be 0.342. For the sequence RRIRLRPPRLPRPRPRPRPPPRP, the “shrunken log2 fold change” value stood at 1.58. For RRIRKRPPRLPRPRPRPGTGPRP, the “shrunken log2 fold change” value amounted to 0.1. With RRIRVRPPRLPRPRPRPGMMPRP, the “shrunken log2 fold change” value is 0.135. Regarding RRIRNRPPRLPRPRPRPCKRPRP, the “shrunken log2 fold change” value was -0.0122. In the case of RRIRSRPPRLPRPRPRPCNSPRP, the “shrunken log2 fold change” value is -0.0626. RRIRHRPPRLPRPRPRPANEPRP: the “shrunken log2 fold change” value came to 0.0508. For the sequence RRIRHRPPRLPRPRPRPNNFPRP, the “shrunken log2 fold change” value is -0.0738. In the case of RRIRGRPPRLPRPRPRPKKKPRP it was 0.354. On to RRIRMRPPRLPRPRPRPEYYPRP, for which the “shrunken log2 fold change” value is -0.218.

RRIRPRPPRLPRPRPRPDYDPRP: the “shrunken log2 fold change” value is -0.252. For RRIRMRPPRLPRPRPRPFAMPRP, the “shrunken log2 fold change” value came out at 0.171.

Turning to RRIRNRPPRLPRPRPRPRWQPRP, the “shrunken log2 fold change” value is -0.00911. As for RRIRNRPPRLPRPRPRPVHAPRP, the “shrunken log2 fold change” value came out at 0.0862.

Consider RRIRGRPPRLPRPRPRPDLCPRP, for which the “shrunken log2 fold change” value came out at 0.445. For the sequence RRIRWRPPRLPRPRPRPWIAPRP, the “shrunken log2 fold change” value is -0.11. Regarding RRIRTRPPRLPRPRPRPLNPPRP, the “shrunken log2 fold change” value is -0.19. Consider RRIRERPPRLPRPRPRPDNYPRP, for which the “shrunken log2 fold change” value was -0.0933. In the case of RRIRFRPPRLPRPRPRPSVWPRP it was -0.229. As to RRIRQRPPRLPRPRPRPEIIPRP, the “shrunken log2 fold change” value worked out at 0.0359. In the case of RRIRSRPPRLPRPRPRPLHDPRP it was -0.0221; in that of RRIRQRPPRLPRPRPRPQHCPRP, -0.076. For RRIRGRPPRLPRPRPRPCDLPRP, the “shrunken log2 fold change” value amounted to 0.0268. As to RRIRARPPRLPRPRPRPEPVPRP, the “shrunken log2 fold change” value was found to be 0.512. On to RRIRWRPPRLPRPRPRPWEMPRP, for which the “shrunken log2 fold change” value was -0.0156. Take RRIRVRPPRLPRPRPRPNECPRP: the “shrunken log2 fold change” value was -0.0835. With RRIRWRPPRLPRPRPRPDKDPRP the figure was -0.365; with RRIRPRPPRLPRPRPRPQKIPRP, -0.267. With RRIRPRPPRLPRPRPRPNWHPRP the figure was -0.0472; with RRIRDRPPRLPRPRPRPDSPPRP, -0.248. RRIRFRPPRLPRPRPRPQDLPRP: the “shrunken log2 fold change” value was -0.0337. Take RRIRGRPPRLPRPRPRPGCKPRP: the “shrunken log2 fold change” value was found to be 0.441. As to RRIRDRPPRLPRPRPRPYCPPRP, the “shrunken log2 fold change” value is -1.1.

As for RRIRSRPPRLPRPRPRPRMWPRP, the “shrunken log2 fold change” value is 0.114. As for RRIRERPPRLPRPRPRPDVNPRP, the “shrunken log2 fold change” value was -0.0793. With RRIRTRPPRLPRPRPRPCTFPRP, the “shrunken log2 fold change” value was -0.241. With RRIRDRPPRLPRPRPRPARLPRP, the “shrunken log2 fold change” value stood at 0.382. With RRIRHRPPRLPRPRPRPRRYPRP, the “shrunken log2 fold change” value was 0.0129. RRIRQRPPRLPRPRPRPFICPRP: the “shrunken log2 fold change” value is -0.0129. For RRIRKRPPRLPRPRPRPNCQPRP, the “shrunken log2 fold change” value was -0.263. In the case of RRIRCRPPRLPRPRPRPCSGPRP it was -0.513; in that of RRIRGRPPRLPRPRPRPNHSPRP, 0.195; in that of RRIRTRPPRLPRPRPRPGLEPRP, 0.198. With RRIRTRPPRLPRPRPRPDHKPRP the figure was -0.117; with RRIRNRPPRLPRPRPRPQWAPRP, -0.188; with RRIRIRPPRLPRPRPRPPPQPRP, 0.52. Regarding RRIRCRPPRLPRPRPRPFNNPRP, the “shrunken log2 fold change” value is -0.701. Regarding RRIRVRPPRLPRPRPRPIPEPRP, the “shrunken log2 fold change” value was -0.0974. In the case of RRIRMRPPRLPRPRPRPLDTPRP, the “shrunken log2 fold change” value is -0.0606. With RRIRGRPPRLPRPRPRPCGAPRP, the “shrunken log2 fold change” value is 1.16. Regarding RRIRVRPPRLPRPRPRPMIDPRP, the “shrunken log2 fold change” value is -0.283.

Consider RRIRPRPPRLPRPRPRPLGGPRP, for which the “shrunken log2 fold change” value was found to be 1.53. In the case of RRIRIRPPRLPRPRPRPNFAPRP it was 0.0322; in that of RRIRIRPPRLPRPRPRPSGQPRP, -0.0453; in that of RRIRFRPPRLPRPRPRPPGTPRP, 0.316. Consider RRIRVRPPRLPRPRPRPVHNPRP, for which the “shrunken log2 fold change” value is -0.404. For RRIRARPPRLPRPRPRPRGTPRP, the “shrunken log2 fold change” value was 0.448.

For the sequence RRIRRRPPRLPRPRPRPFQQPRP, the “shrunken log2 fold change” value was 0.282. With RRIRGRPPRLPRPRPRPPCMPRP the figure was 0.293; with RRIRWRPPRLPRPRPRPHTWPRP, -0.134. With RRIRYRPPRLPRPRPRPPAYPRP, the “shrunken log2 fold change” value is -0.767. For the sequence RRIRYRPPRLPRPRPRPCWSPRP, the “shrunken log2 fold change” value was -0.768.
